According to patent US20240261333A1, “NOVEL TARGETS FOR ENHANCING ANTI-TUMOR IMMUNITY” (THE BROAD INSTITUTE, INC., priority 2021, published 2024):

How the values were obtained:
PUF60 (human) = PUF60 (human) (UniProt Q9UHX1); experiment: co-IP with IgG control, lysate of N-FLAG B3GNT2 cells, mass spectrometry
PURA (human) = PURA (human) (UniProt Q00577); experiment: as above
RPL17 (human) = RPL17 (human) (UniProt P18621); experiment: as above
RBM14 (human) = RBM14 (human) (UniProt Q96PK6); experiment: as above
RPL6 (human) = RPL6 (human) (UniProt Q02878); experiment: as above
JUP (human) = JUP (human) (UniProt P14923); experiment: as above
NAP1L1 (human) = NAP1L1 (human) (UniProt P55209); experiment: as above
LAMC1 (human) = LAMC1 (human) (UniProt P11047); experiment: as above
SPARC (human) = SPARC (human) (UniProt P09486); experiment: as above
TPM2 (human) = TPM2 (human) (UniProt P07951); experiment: as above
TM9SF1 (human) = TM9SF1 (human) (UniProt O15321); experiment: as above
PLOD1 (human) = PLOD1 (human) (UniProt Q02809); experiment: as above
MMP14 (human) = MMP14 (human) (UniProt P50281); experiment: as above
XPOT (human) = XPOT (human) (UniProt O43592); experiment: as above
TGM1 (human) = TGM1 (human) (UniProt P22735); experiment: as above
MMS19 (human) = MMS19 (human) (UniProt Q96T76); experiment: as above
RPS24 (human) = RPS24 (human) (UniProt P62847); experiment: as above
P4HA2 (human) = P4HA2 (human) (UniProt O15460); experiment: as above
CPSF7 (human) = CPSF7 (human) (UniProt Q8N684); experiment: as above
SBSN (human) = SBSN (human) (UniProt Q6UWP8); experiment: as above
YTHDF2 (human) = target: T1, YTHDF2 (human) (UniProt Q9Y5A9); experiment: control IP with IgG, lysate of cells with N-FLAG B3GNT2, mass spectrometry
T1 sequence (looked up): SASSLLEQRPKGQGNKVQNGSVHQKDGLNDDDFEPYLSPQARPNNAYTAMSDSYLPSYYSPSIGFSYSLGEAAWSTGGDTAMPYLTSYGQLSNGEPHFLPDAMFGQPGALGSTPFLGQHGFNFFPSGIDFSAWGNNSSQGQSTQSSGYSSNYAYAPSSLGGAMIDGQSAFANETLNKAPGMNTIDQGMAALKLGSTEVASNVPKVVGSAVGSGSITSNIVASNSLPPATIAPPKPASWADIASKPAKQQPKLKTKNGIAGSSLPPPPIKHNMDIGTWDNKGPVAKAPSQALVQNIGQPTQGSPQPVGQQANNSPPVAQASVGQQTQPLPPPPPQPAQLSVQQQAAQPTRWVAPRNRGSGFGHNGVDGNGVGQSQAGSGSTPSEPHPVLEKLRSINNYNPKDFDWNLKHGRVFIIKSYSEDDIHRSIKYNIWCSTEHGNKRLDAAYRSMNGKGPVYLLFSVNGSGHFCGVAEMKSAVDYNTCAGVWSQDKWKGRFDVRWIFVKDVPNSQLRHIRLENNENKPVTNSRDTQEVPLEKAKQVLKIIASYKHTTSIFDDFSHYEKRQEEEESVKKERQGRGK

IMMT (human) = IMMT (human) (UniProt Q16891); experiment: as above
SERPINB3 (human) = SERPINB3 (human) (UniProt P29508); experiment: as above
RPS27A (human) = RPS27A (human) (UniProt P62979); experiment: as above
S100A7 (human) = S100A7 (human) (UniProt P31151); experiment: as above
PKM (human) = PKM (human) (UniProt P14618); experiment: as above
LGALS7B (human) = LGALS7B (human) (UniProt P47929); experiment: as above
RPL7 (human) = RPL7 (human) (UniProt P18124); experiment: as above
DDX1 (human) = DDX1 (human) (UniProt Q92499); experiment: as above
YBX1 (human) = YBX1 (human) (UniProt P67809); experiment: as above
RHOT2 (human) = RHOT2 (human) (UniProt Q8IXI1); experiment: as above

Sequence of PLOD1 (human) (Q02809 19-727 limits assumed): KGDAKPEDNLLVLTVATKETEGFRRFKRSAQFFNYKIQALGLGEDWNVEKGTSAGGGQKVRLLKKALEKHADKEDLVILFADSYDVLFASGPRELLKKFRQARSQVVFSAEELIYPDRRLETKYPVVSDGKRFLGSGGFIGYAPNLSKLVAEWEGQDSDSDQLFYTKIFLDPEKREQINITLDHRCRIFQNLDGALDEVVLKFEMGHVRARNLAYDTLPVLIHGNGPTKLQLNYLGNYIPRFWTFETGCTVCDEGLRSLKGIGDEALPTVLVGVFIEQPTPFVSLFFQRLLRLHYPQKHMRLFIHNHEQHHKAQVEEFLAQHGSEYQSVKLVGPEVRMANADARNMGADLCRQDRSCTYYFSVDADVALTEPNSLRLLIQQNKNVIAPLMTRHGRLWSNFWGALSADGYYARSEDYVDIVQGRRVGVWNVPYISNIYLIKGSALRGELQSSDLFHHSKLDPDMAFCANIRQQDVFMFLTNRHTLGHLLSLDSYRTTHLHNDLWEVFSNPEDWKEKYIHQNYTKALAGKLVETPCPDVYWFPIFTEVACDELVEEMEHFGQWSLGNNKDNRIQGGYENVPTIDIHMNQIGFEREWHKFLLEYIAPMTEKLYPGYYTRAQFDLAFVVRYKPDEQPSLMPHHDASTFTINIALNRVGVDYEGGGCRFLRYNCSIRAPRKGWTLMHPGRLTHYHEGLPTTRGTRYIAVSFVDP
Sequence of RBM14 (human) (Q96PK6 whole entry): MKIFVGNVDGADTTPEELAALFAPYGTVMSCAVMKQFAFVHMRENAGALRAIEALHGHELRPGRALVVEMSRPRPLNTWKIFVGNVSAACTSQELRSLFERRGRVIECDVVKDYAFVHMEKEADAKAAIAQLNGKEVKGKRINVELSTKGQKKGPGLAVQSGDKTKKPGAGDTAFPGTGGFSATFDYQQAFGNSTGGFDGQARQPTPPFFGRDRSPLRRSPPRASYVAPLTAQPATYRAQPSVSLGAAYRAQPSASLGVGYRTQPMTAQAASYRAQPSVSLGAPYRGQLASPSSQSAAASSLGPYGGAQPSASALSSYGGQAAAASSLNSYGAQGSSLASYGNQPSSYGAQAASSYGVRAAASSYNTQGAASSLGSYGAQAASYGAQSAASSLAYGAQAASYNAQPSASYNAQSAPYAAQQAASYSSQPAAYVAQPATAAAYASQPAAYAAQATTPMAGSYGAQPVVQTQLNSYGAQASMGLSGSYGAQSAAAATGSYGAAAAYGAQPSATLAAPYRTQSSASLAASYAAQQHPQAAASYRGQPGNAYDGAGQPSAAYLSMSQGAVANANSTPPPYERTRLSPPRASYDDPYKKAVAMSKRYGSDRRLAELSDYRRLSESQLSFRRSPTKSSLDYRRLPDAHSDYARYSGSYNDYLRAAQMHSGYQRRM
Sequence of SPARC (human) (P09486 18-303 limits assumed): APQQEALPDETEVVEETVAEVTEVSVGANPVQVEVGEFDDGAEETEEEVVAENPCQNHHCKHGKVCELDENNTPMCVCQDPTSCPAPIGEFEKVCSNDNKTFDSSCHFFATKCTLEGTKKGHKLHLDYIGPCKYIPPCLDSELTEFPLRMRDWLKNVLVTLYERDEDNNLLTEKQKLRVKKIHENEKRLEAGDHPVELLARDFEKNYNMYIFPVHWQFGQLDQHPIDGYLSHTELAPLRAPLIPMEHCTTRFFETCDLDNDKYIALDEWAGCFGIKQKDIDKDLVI
Sequence of IMMT (human) (Q16891 other isoform, or with tags, fused parts or gaps limits assumed): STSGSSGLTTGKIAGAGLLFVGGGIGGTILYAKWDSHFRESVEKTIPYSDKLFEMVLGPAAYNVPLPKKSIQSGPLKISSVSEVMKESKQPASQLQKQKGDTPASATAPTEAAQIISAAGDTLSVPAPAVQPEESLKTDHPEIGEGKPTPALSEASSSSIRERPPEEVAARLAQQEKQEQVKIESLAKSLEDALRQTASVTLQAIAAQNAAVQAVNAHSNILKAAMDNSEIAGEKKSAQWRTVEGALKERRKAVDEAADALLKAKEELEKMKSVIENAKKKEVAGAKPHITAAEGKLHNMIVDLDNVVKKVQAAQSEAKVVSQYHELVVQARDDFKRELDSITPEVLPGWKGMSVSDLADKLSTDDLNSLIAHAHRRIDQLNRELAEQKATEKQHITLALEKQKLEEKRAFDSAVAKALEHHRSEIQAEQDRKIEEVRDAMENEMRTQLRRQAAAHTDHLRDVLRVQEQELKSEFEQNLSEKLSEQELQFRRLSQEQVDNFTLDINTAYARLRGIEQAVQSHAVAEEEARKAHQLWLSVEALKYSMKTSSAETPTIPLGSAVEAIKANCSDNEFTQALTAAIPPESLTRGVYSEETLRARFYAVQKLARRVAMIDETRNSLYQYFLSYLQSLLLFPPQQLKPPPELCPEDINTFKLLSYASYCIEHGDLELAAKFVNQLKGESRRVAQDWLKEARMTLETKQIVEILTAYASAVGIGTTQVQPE
Sequence of NAP1L1 (human) (P55209 2-388 limits assumed): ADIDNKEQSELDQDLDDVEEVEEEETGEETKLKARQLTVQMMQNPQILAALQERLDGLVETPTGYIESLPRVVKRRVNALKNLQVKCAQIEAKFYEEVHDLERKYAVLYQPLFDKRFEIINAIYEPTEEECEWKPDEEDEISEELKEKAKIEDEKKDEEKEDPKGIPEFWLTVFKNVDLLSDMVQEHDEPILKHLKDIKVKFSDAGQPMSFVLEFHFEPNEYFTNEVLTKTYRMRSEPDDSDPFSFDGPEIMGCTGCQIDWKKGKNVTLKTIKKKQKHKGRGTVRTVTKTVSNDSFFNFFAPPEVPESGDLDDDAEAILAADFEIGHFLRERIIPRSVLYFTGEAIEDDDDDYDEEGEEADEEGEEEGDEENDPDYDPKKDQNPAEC
Sequence of PURA (human) (Q00577 2-322 limits assumed): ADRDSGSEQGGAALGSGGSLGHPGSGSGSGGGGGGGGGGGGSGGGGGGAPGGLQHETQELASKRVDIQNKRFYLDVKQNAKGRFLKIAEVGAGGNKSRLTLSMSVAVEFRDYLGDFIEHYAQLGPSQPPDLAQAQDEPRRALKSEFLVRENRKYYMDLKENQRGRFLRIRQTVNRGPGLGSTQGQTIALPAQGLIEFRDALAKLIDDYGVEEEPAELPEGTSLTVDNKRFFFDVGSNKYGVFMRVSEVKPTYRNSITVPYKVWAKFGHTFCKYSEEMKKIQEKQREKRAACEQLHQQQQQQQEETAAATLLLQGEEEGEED
Sequence of P4HA2 (human) (O15460 22-535 limits assumed): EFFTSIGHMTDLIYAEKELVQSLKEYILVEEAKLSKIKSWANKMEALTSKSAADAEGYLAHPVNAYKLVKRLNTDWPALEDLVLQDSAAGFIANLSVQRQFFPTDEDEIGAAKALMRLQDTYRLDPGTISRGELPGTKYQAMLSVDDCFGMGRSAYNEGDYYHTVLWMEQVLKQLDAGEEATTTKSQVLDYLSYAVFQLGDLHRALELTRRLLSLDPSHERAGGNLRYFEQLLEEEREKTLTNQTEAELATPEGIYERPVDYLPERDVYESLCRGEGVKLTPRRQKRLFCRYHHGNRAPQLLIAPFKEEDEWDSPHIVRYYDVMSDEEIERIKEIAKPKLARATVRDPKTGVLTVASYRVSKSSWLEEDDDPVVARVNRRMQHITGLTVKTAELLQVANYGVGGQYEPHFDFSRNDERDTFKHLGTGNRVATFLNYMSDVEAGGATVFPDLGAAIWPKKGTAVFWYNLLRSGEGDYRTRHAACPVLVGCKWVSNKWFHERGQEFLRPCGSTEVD
Sequence of RPS24 (human) (P62847 other isoform, or with tags, fused parts or gaps limits assumed): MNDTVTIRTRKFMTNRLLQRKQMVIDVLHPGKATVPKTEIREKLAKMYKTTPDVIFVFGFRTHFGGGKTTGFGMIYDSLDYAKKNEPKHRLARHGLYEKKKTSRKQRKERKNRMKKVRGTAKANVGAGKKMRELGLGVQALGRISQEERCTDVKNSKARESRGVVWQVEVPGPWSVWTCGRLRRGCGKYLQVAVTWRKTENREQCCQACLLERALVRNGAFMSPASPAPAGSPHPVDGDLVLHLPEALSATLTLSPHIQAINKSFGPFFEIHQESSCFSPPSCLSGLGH
Sequence of MMS19 (human) (Q96T76 other isoform, or with tags, fused parts or gaps limits assumed): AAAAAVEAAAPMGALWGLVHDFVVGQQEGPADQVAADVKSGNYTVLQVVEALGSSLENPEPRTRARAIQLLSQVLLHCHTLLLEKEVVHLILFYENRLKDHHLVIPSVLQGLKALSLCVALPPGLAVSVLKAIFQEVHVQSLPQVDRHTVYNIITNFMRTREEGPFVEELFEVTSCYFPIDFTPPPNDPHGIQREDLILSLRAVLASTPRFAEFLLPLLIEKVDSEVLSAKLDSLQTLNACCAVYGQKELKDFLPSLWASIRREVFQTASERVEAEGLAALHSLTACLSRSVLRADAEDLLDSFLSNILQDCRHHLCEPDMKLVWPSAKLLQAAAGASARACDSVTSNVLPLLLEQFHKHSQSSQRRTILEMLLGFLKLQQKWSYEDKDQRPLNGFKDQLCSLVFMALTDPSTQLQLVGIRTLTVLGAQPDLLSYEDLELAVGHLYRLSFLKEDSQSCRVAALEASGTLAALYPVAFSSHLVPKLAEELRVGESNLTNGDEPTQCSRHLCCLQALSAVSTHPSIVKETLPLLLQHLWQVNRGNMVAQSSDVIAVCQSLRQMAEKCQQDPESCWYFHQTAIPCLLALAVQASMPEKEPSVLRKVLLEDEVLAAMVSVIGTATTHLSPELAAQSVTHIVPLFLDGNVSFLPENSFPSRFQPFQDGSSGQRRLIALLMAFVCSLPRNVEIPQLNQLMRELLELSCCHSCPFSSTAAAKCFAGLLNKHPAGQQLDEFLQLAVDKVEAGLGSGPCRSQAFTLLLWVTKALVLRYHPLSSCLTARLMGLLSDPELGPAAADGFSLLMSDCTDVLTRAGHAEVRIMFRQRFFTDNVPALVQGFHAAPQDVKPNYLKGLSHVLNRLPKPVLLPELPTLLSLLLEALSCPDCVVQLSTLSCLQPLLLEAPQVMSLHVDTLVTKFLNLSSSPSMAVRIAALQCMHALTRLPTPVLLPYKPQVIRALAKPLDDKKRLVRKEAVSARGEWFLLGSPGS
Sequence of S100A7 (human) (P31151 2-101 limits assumed): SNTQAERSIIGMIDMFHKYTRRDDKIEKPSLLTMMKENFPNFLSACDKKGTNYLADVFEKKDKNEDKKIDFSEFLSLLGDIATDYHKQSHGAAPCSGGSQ

IgG control (Millipore Sigma 12-371) (antibody)
co-IP/MS count, N-term IgG (PUF60 (human)): 5
co-IP/MS count, N-term IgG (PURA (human)): 2
co-IP/MS count, N-term IgG (RPL17 (human)): 0
co-IP/MS count, N-term IgG (RBM14 (human)): 4
co-IP/MS count, N-term IgG (RPL6 (human)): 5
co-IP/MS count, N-term IgG (JUP (human)): 39
co-IP/MS count, N-term IgG (NAP1L1 (human)): 0
co-IP/MS count, N-term IgG (LAMC1 (human)): 0
co-IP/MS count, N-term IgG (SPARC (human)): 0
co-IP/MS count, N-term IgG (TPM2 (human)): 0
co-IP/MS count, N-term IgG (TM9SF1 (human)): 0
co-IP/MS count, N-term IgG (PLOD1 (human)): 0
co-IP/MS count, N-term IgG (MMP14 (human)): 0
co-IP/MS count, N-term IgG (XPOT (human)): 0
co-IP/MS count, N-term IgG (TGM1 (human)): 9
co-IP/MS count, N-term IgG (MMS19 (human)): 0
co-IP/MS count, N-term IgG (RPS24 (human)): 4
co-IP/MS count, N-term IgG (P4HA2 (human)): 0
co-IP/MS count, N-term IgG (CPSF7 (human)): 8
co-IP/MS count, N-term IgG (SBSN (human)): 25
co-IP mass spectrometry count (YTHDF2 (human)): 4
co-IP mass spectrometry count (IMMT (human)): 17
co-IP mass spectrometry count (SERPINB3 (human)): 3
co-IP mass spectrometry count (RPS27A (human)): 11
co-IP mass spectrometry count (S100A7 (human)): 2
co-IP mass spectrometry count (PKM (human)): 2
co-IP mass spectrometry count (LGALS7B (human)): 4
co-IP mass spectrometry count (RPL7 (human)): 5
co-IP mass spectrometry count (DDX1 (human)): 2
co-IP mass spectrometry count (YBX1 (human)): 3
co-IP mass spectrometry count (RHOT2 (human)): 0
